Source: PMC12618484 (Nature Communications, 2025)
Numbering of substitutions follows the chain as printed. In names and notes the source's numbering stands. Each block holds one molecule with its values, some of them ahead of it.

How the values were obtained:
[1] = target: T1, dihydrolipoamide dehydrogenase (DLD) (Homo sapiens, UniProt P09622); assay: bio-layer interferometry and SPR; format: binding
T1 sequence (P09622 36-509): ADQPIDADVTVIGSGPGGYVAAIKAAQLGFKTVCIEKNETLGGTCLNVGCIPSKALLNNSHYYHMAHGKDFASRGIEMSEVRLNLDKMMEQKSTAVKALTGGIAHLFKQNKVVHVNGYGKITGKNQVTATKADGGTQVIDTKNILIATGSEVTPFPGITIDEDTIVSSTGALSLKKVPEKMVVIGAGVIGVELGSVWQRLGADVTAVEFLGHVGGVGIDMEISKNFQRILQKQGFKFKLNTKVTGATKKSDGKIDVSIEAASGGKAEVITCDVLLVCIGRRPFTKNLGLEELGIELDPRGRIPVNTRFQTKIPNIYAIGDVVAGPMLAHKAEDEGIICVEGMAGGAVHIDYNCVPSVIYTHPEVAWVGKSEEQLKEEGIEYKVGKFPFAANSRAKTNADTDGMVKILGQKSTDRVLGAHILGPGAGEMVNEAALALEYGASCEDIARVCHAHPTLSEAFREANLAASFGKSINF

cross-linking = target: the molecule itself; assay: cross-linking

Kd [1]: 500 to 600 nM
Molecule: O=C(O)CCCCC(CCSCc1ccccc1)SCc1ccccc1 (stereo not drawn) [devimistat]

B1: HA-tagged DLD-K430Q (enzyme, human, UniProt P09622 36-509, looked up)
chain: T1 sequence (P09622 36-509) with K395Q
stoichiometry N (cross-linking): 2

B2: HA-tagged DLD-K430R (enzyme, human, UniProt P09622 36-509, looked up)
chain: T1 sequence (P09622 36-509) with K395R
stoichiometry N (cross-linking): 2
